# Target: T1, HLA-A*0201 loaded with the Carcinoembryonic antigen (CEA)-derived … peptide (biotin on the C-terminal biotinylation tag)
# T1 construct: Soluble, biotinylated, immobilised on a streptavidin chip
# Test: Biacore SPR
# Experimental: SPR measures changes in refractive index expressed in response units (RU) near a sensor surface within a small flow cell, a principle that can be used to detect receptor ligand interactions and to analyse their affinity and kinetic parameters. The probe flow cells were prepared by immobilising the pMHC complexes in flow cells via biotin-tag binding. The assay was then performed by passing soluble ILT-like molecule over the surfaces of the different flow cells at a constant flow rate, measuring the SPR response in doing so.
Binder,Kd [nM],koff [s⁻¹]
"SEQ ID NO 47 (receptor, mutated soluble two domain ILT-2) MAGHLPKPTLWAEPGSVITMDQPVTLRCQGGQETQEYRLYREKKTAPWITRIPQELVKKGQFPIPSITWEHAGRYRCYYGSDTSQWSASSDPLELVVTGVYIKPTLSAQPSPVVNSGGNVTLQCDSQVAFDGFILCKEGEDEHPQCLNSQPHARGSSRAIFSVGPVSPSRRWWYRCYAYMSNAPYEWSLPSDLLELDVDG",≤ 1000,≤ 2
"SEQ ID NO 51 (receptor, mutated soluble two domain ILT-2) MAGHLPKPTLWAEPGSVITMDQPVTLRCQGGQETQEYRLYREKKTAPWITRIPQELVKKGQFPIPSITWEHAGRYRCYYGSDTSQWSASSDPLELVVTGVYIKPTLSAQPSPVVNSGGNVTLQCDSQVAFDGFILCKEGEDEHPQCLNSQPHARGSSRAIFSVGPVSPSRRWWYRCYAYPIWTPYEWSLGSDLLELDVDG",≤ 1000,≤ 2
"SEQ ID NO 52 (receptor, mutated soluble two domain ILT-2) MAGHLPKPTLWAEPGSVITMDQPVTLRCQGGQETQEYRLYREKKTAPWITRIPQELVKKGQFPIPSITWEHAGRYRCYYGSDTSQWSASSDPLELVVTGVYIKPTLSAQPSPVVNSGGNVTLQCDSQVAFDGFILCKEGEDEHPQCLNSQPHARGSSRAIFSVGPVSPSRRWWYRCYAYPIWTPYEWSQMSDLLELDVDG",≤ 1000,≤ 2
"SEQ ID NO 53 (receptor, mutated soluble two domain ILT-2) MAGHLPKPTLWAEPGSVITMDQPVTLRCQGGQETQEYRLYREKKTAPWITRIPQELVKKGQFPIPSITWEHAGRYRCYYGSDTSQWSASSDPLELVVTGVYIKPTLSAQPSPVVNSGGNVTLQCDSQVAFDGFILCKEGEDEHPQCLNSQPHARGSSRAIFSVGPVSPSRRWWYRCYAYPIWTPYEWTRGSDLLELDVDG",≤ 1000,≤ 2
"SEQ ID NO 54 (receptor, mutated soluble two domain ILT-2) MAGHLPKPTLWAEPGSVITMDQPVTLRCQGGQETQEYRLYREKKTAPWITRIPQELVKKGQFPIPSITWEHAGRYRCYYGSDTSQWSASSDPLELVVTGVYIKPTLSAQPSPVVNSGGNVTLQCDSQVAFDGFILCKEGEDEHPQCLNSQPHARGSSRAIFSVGPVSPSRRWWYRCYAYPIWTPYEWSTSSDLLELDVDG",≤ 1000,≤ 2
"SEQ ID NO 48 (receptor, mutated soluble two domain ILT-2) MAGHLPKPTLWAEPGSVITMDQPVTLRCQGGQETQEYRLYREKKTAPWITRIPQELVKKGQFPIPSITWEHAGRYRCYYGSDTSQWSASSDPLELVVTGVYIKPTLSAQPSPVVNSGGNVTLQCDSQVAFDGFILCKEGEDEHPQCLNSQPHARGSSRAIFSVGPVSPSRRWWYRCYAYDSWAPYEWSLPSDLLELDVDG",≤ 1000,≤ 2
"SEQ ID NO 135 (receptor, mutated soluble two domain ILT-2) MGHLPKPTLWAEPGSVITMDQPVTLRCQGGQETQEYRLYREKKTAPWITRIPQELVKKGQFPIPSITWEHAGRYRCYYGSDTSQWSASSDPLELVVTGVYIKPTLSAQPSPVVNSGGNVTLQCDSPFIADGFILCKEGEDEHPQCLNSQPHARGSSRAIFSVGPVSPSRRWWYRCYAYMSWSPYEWSLPSDLLELDVDG",≤ 1000,≤ 2
"SEQ ID NO 35 (receptor, mutated soluble two domain ILT-2) MGHLPKPTLWAEPGSVITMDQPVTLRCQGGQETQEYRLYREKKTAPWITRIPQELVKKGQFPIPSITWEHAGRYRCYYGSDTAGRSESSDPLELVVTGVYIKPTLSAQPSPVVNSGGNVTLQCDSQVAFDGFILCKEGEDEHPQCLNSQPHARGSSRAIFSVGPVSPSRRWWYRCYAYMNWAPYEWSLPSDLLELDVDG",≤ 1000,≤ 2
"SEQ ID NO 39 (receptor, mutated soluble two domain ILT-2) MGHLPKPTLWAEPGSVITMDQPVTLRCQGGQETQEYRLYREKKTAPWITRIPQELVKKGQFPIPSITWEHAGRYRCYYGSDTAGRSESSDPLELVVTGVYIKPTLSAQPSPVVNSGGNVTLQCDSQVAFDGFILCKEGEDEHPQCLNSQPHARGSSRAIFSVGPVSPSRRWWYRCYAYMSWAPYEWSLPSDLLELDVDG",≤ 1000,≤ 2
"SEQ ID NO 37 (receptor, mutated soluble two domain ILT-2) MGHLPKPTLWAEPGSVITMDQPVTLRCQGGQETQEYRLYREKKTAPWITRIPQELVKKGQFPIPSITWEHAGRYRCYYGSDTAGRSESSDPLELVVTGVYIKPTLSAQPSPVVNSGGNVTLQCDSQVAFDGFILCKEGEDEHPQCLNSQPHARGSSRAIFSVGPVSPSRRWWYRCYAYPAWTPYEWSLPSDLLELDVDG",≤ 1000,≤ 2
"SEQ ID NO 41 (receptor, mutated soluble two domain ILT-2) MGHLPKPTLWAEPGSVITMDQPVTLRCQGGQETQEYRLYREKKTAPWITRIPQELVKKGQFPIPSITWEHAGRYRCYYGSDTAGRSESSDPLELVVTGVYIKPTLSAQPSPVVNSGGNVTLQCDSQVAFDGFILCKEGEDEHPQCLNSQPHARGSSRAIFSVGPVSPSRRWWYRCYAYMSWSPYEWSLPSDLLELDVDG",≤ 1000,≤ 2
"SEQ ID NO 31 (receptor, mutated soluble two domain ILT-2) MGHLPKPTLWAEPGSVITMDQPVTLRCQGGQETQEYRLYREKKTAPWITRIPQELVKKGQFPIPSITWEHAGRYRCYYGSDTAGRSESSDPLELVVTGVYIKPTLSAQPSPVVNSGGNVTLQCDSQVAFDGFILCKEGEDEHPQCLNSQPHARGSSRAIFSVGPVSPSRRWWYRCYAYPIWTPYEWSLPSDLLELDVDG",≤ 1000,≤ 2
"SEQ ID NO 33 (receptor, mutated soluble two domain ILT-2) MGHLPKPTLWAEPGSVITMDQPVTLRCQGGQETQEYRLYREKKTAPWITRIPQELVKKGQFPIPSITWEHAGRYRCYYGSDTAGRSESSDPLELVVTGVYIKPTLSAQPSPVVNSGGNVTLQCDSQVAFDGFILCKEGEDEHPQCLNSQPHARGSSRAIFSVGPVSPSRRWWYRCYAYVAWAPYEWSLPSDLLELDVDG",≤ 1000,≤ 2

# Now from value to binder:
Kd [nM],koff [s⁻¹],Binder
≤ 1000,≤ 2,"SEQ ID NO 57 (receptor, mutated soluble two domain ILT-2) MAGHLPKPTLWAEPGSVITMDQPVTLRCQGGQETQEYRLYREKKTAPWITRIPQELVKKGQFPIPSITWEHAGRYRCYYGSDTSQWSASSDPLELVVTGVYIKPTLSAQPSPVVNSGGNVTLQCDSQVAFDGFILCKEGEDEHPQCLNSQPHARGSSRAIFSVGPVSPSRRWWYRCYAYDSNSPYEWTRGSDLLELDVDG"
≤ 1000,≤ 2,"SEQ ID NO 56 (receptor, mutated soluble two domain ILT-2) MAGHLPKPTLWAEPGSVITMDQPVTLRCQGGQETQEYRLYREKKTAPWITRIPQELVKKGQFPIPSITWEHAGRYRCYYGSDTSQWSASSDPLELVVTGVYIKPTLSAQPSPVVNSGGNVTLQCDSQVAFDGFILCKEGEDEHPQCLNSQPHARGSSRAIFSVGPVSPSRRWWYRCYAYPIWTPYEWTLGSDLLELDVDG"
≤ 1000,≤ 2,"SEQ ID NO 58 (receptor, mutated soluble two domain ILT-2) MAGHLPKPTLWAEPGSVITMDQPVTLRCQGGQETQEYRLYREKKTAPWITRIPQELVKKGQFPIPSITWEHAGRYRCYYGSDTSQWSASSDPLELVVTGVYIKPTLSAQPSPVVNSGGNVTLQCDSQVAFDGFILCKEGEDEHPQCLNSQPHARGSSRAIFSVGPVSPSRRWWYRCYAYDSNSPYEWSQMSDLLELDVDG"
≤ 1000,≤ 2,"SEQ ID NO 59 (receptor, mutated soluble two domain ILT-2) MAGHLPKPTLWAEPGSVITMDQPVTLRCQGGQETQEYRLYREKKTAPWITRIPQELVKKGQFPIPSITWEHAGRYRCYYGSDTSQWSASSDPLELVVTGVYIKPTLSAQPSPVVNSGGNVTLQCDSQVAFDGFILCKEGEDEHPQCLNSQPHARGSSRAIFSVGPVSPSRRWWYRCYAYDSNSPYEWSSGSDLLELDVDG"
≤ 1000,≤ 2,"SEQ ID NO 55 (receptor, mutated soluble two domain ILT-2) MAGHLPKPTLWAEPGSVITMDQPVTLRCQGGQETQEYRLYREKKTAPWITRIPQELVKKGQFPIPSITWEHAGRYRCYYGSDTSQWSASSDPLELVVTGVYIKPTLSAQPSPVVNSGGNVTLQCDSQVAFDGFILCKEGEDEHPQCLNSQPHARGSSRAIFSVGPVSPSRRWWYRCYAYPIWTPYEWSSGSDLLELDVDG"
≤ 1000,≤ 2,"SEQ ID NO 130 (receptor, mutated soluble two domain ILT-2) MGHLPKPTLWAEPGSVITMDQPVTLRCQGGQETQEYRLYREKKTAPWITRIPQELVKKGQFPIPSITWEHAGRYRCYYGSDTSQWSASSDPLELVVTGVYIKPTLSAQPSPVVNSGGNVTLQCDSPWLADGFILCKEGEDEHPQCLNSQPHARGSSRAIFSVGPVSPSRRWWYRCYAYMSWSPYEWSLPSDLLELDVDG"
≤ 1000,≤ 2,"SEQ ID NO 129 (receptor, mutated soluble two domain ILT-2) MGHLPKPTLWAEPGSVITMDQPVTLRCQGGQETQEYRLYREKKTAPWITRIPQELVKKGQFPIPSITWEHAGRYRCYYGSDTSQWSASSDPLELVVTGVYIKPTLSAQPSPVVNSGGNVTLQCDSPFLTDGFILCKEGEDEHPQCLNSQPHARGSSRAIFSVGPVSPSRRWWYRCYAYMSWSPYEWSLPSDLLELDVDG"
≤ 1000,≤ 2,"SEQ ID NO 128 (receptor, mutated soluble two domain ILT-2) MGHLPKPTLWAEPGSVITMDQPVTLRCQGGQETQEYRLYREKKTAPWITRIPQELVKKGQFPIPSITWEHAGRYRCYYGSDTSQWSASSDPLELVVTGVYIKPTLSAQPSPVVNSGGNVTLQCDSPWVADGFILCKEGEDEHPQCLNSQPHARGSSRAIFSVGPVSPSRRWWYRCYAYMSWSPYEWSLPSDLLELDVDG"
≤ 1000,≤ 2,"SEQ ID NO 123 (receptor, mutated soluble two domain ILT-2; also called Clone 64; c64) MGHLPKPTLWAEPGSVITMDQPVTLRCQGGQETQQYRLYREKKTAPWITRIPQELVKKGQFPIPSITWEHAGRYRCYYGSDTRQWSASSDPLELVVTGVYIKPTLSAQPSPVVNSGGNVTLQCDSQVAFDGFILCKEGEDDHPQCLNSQPHARGSSRAIFSVGPVSPSRRWRYRCYAYDSNSPYEWSLPSDLLELDVDG"

# From patent US20100135997A1 (MEDGENE, published 2010)
